Assay results taken from PMC7717906 (eLife, 2020).

Target: the molecule itself
Assay: native gel or EMSA

B1: MoOsm1-GFP (enzyme)
chain: MAEFVRAQIFGTTFEITSRYSDLQPVGMGAFGLVCSARDQLTNQNVAIKKIMKPFSTPVLAKRTYRELKLLKHLKHENVISLSDIFISPLEDIYFVTELLGTDLHRLLTSRPLEKQFIQYFLYQIMRGLKYVHSAGVVHRDLKPSNILVNENCDLKICDFGLARIQDPQMTGYVSTRYYRAPEIMLTWQKYDVEVDIWSAGCIFAEMLEGKPLFPGKDHVNQFSIITELLGTPPDDVINTIASENTLRFVKSLPKRERQPLKNKFKNADPSAIDLLERMLVFDPKKRITATEALAHEYLTPYHDPTDEPIAEEKFDWSFNDADLPVDTWKIMMYSEILDYHNAEAGMQQMDDQFTGQ
- stoichiometry N: 2
